This is an account of results in PMC3814354, “Interaction of bacterial fatty-acid-displaced regulators with DNA is interrupted by tyrosine phosphorylation in the helix-turn-helix domain”.

Common to all, as to conditions: protein: recombinant; tags: N-terminal 6xHis (pQE-30); chain copies: 2; label: none (ethidium bromide stain); blunt
Data set [1] has as its target T1, FatR Y45E (Bacillus subtilis, UniProt O08335 1-194, Y45E).
T1 sequence: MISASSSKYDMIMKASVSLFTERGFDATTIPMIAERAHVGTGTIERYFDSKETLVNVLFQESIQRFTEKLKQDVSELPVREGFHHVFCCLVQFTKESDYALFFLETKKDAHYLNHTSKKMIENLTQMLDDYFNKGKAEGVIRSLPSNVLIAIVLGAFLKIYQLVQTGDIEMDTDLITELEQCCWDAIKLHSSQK
The data set is described as follows: EMSA; 960 and 1920 pmol protein, 30 pmol DNA (up to 64:1); EMSA: 100 mM Tris-HCl pH 7.5, 15 min at 37 C, 8% native PAGE in Tris-glycine (2.5 mM Tris, 192 mM glycine), ethidium bromide stain. In general terms: A gel shift assay detects complexes by their altered migration in electrophoresis.

The target in data set [2] is T2, FatR Y45F (Bacillus subtilis, UniProt O08335 1-194, Y45F).
T2 sequence: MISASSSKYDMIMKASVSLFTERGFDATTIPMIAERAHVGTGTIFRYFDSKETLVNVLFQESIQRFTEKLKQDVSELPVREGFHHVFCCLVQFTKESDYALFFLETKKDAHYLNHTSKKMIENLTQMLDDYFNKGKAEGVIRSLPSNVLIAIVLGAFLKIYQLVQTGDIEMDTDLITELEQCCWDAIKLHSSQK
The description is as above.

Data set [3] concerns the target T3, FatR wild type (Bacillus subtilis, UniProt O08335 1-194).
T3 sequence: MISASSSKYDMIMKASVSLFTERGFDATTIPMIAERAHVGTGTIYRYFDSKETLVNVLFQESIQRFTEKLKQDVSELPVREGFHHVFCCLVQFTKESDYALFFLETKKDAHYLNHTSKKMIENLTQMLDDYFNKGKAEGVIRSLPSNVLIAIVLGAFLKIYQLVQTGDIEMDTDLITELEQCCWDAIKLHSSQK
The data set is described as follows: EMSA; 120-1920 pmol protein, 30 pmol DNA (protein:DNA 4:1 to 64:1); EMSA: 100 mM Tris-HCl pH 7.5, 15 min at 37 C, 8% native PAGE in Tris-glycine (2.5 mM Tris, 192 mM glycine), ethidium bromide stain.

B1: fatR operator (BsOP1/BsOP2) (dsDNA)
DNA 1: TACGGAATGAATATTCATTCCTTT
DNA 2: AAAGGAATGAATATTCATTCCGTA
As for B1, the binding result is on record as “no binding” in data set [1], “no binding” in data set [2] and “binds” in data set [3].
